From patent publication US20230115257A1 (published 2023)

Experiments:
SARS-CoV-1 spike protein = SARS-CoV-1 spike protein (SARS-CoV-1, UniProt P59594 14-1195); experiment: ELISA
[1] = biological target: SARS-CoV-2 (WIV02 isolate) prefusion stabilized spike trimer protein (UniProt P0DTC2 14-1213); experiment: ELISA

Row | Binder | IC50 (SARS-CoV-1 spike protein) [nM] | IC50 [1] [nM]
1 | 8-A17-A (antibody, V domains shown) VH: QVQLKESGPGLVAPSQSLSITCTVSGFSLTSYAISWVRQPPGKGLEWLGVVWPGGGTNYNSALKSRLSINKDNSKSQVFLKMNSLQTDDTGRYYCARTGYHFDYWGQGTTLTVSS VL: QIVLTQSPAIMSASPGEKVTMTCSVSSSVSYMHWYQQKSGTSPKRWIYDTSKLASGVPARFSGSGSGTSYSLTISSMEAEDAATYYCQQWSSNPPMYTFGGGTKLEIK | 5.1 | –
2 | 4-L4-A (antibody, V domains shown) VH: QAYLQQSGAELVRPGASVKMSCKASGYTFTSYTVHWVKQTPRQGLEWIGGIYPGNVDTSYNQNFKGKATLTVDKSSSTAYMQLSSLTSEDSAVYFCARDGYYAMDYWGQGTSVTVSS VL: not shown | – | 8.34
3 | 2-G20-A (antibody, V domains shown) VH: EVQLQQSGPELVKPGASVKMSCKASGYTFPSYVLHWVKQKPGQGLEWIGYIYPYNDGTNYNEKFKGKATLTSDKSSSTAYMELSSLTSEDSAVYYCARGDYGDSAWFPYWGQGTLVTVSA VL: DIVLTQSPASLAVSLGQRATISCRASKSVSTSGYSYMHWYQQKPGQPPKLLIYLASNLKSGVPARFSGGGSGTDFTLNIHPVEEEDAATYYCQLSRELPWTFGGGTKLEIK | 6.65 | 18.3
4 | 2-H7-A (antibody, V domains shown) VH: QAYLQQSGAELVRPGASVKMSCKASGYTFTGYTMHWVKQTPRQGLEWIGAIYPENGDTSYNQKFKGKATLTVDKSSSTAYMQLSSLTSEDSAVYFCARDGYDVLYGMDYWGQGTSVTVSS VL: DIVLTQSPASLAVSLGQRATISCRASKSVSTSGYSYMHWYQQKPGQPPKLLIYLASNLESGVPARFSGSGSGTDFTLNIHPVEEEDAATYYCQHSRELPWTFGGGTKLDIK | – | 7.21
5 | 6-O12-A (antibody, V domains shown) VH: QVQLQQPGTELVKPGASVKLSCKASGYTFTSYWMHWVKQRPGQGLEWIGNINPSNGGTNYNEKFRSKATLTVDKSSSTAYMQLSSLTSEDSAVYYCARLGWFLPLGSWGQGTTLTVSS VL: QIVLTQSPAIMSASLGEVITLTCSASSSVSYMHWYQQKSGTSPKLLIYSTSNLASGVPSRFSGSGSGTFYSLTISSVEAEDAADYYCHQWSGYMYTFGGGTKLEIK | 5.4 | 7.62
6 | 1-B11-A (antibody, V domains shown) VH: QVQLQQSGPELVKPGASVKISCKASGYTFTDHYINWVKQRPGQGLEWIGWIFPGSGSTYYNEQFKGKATLTVDKSSNTAYMLLSSLTSEDSAVYFCARSGGLRLGFAYWGQGTLVTVSA VL: DIQMTQTTSSLSASLGDRVTISCRASQDISNYLNWYQQKPDGTVKLLIYYTSRLHSGVPSRFSGSGSGTDYSLTISNLEQEDISTYFCQQVNTLPYTFGGGTKLEIK | 20.9 | –
7 | 9-F6-A (antibody, V domains shown) VH: EVQLQQSGPELVKPGASVKMSCKASGYTFTSYIMHWVKQKPGQGLEWIGYILPYNDGTKYNEKFKGKATLTSDKSSSTAYMELRSLTSEDSAVYYCARWGYSNFLDSWGQGTTLTVSS VL: DIQMTQTTSSLSASLGDRVTISCRASQDINNYLNWYQQKPDGTVKLLIYYTSRLHSGVPSRFSGSGSGTDYSLTIRNLEQEDIATYFCQQGNTLPPTFGGGTKLEIK | 5.55 | 16.7
8 | 8-L17-A (antibody, V domains shown) VH: EVQLVESGGGLVQPKGSLKLSCAASGFTFNTYAMHWVRQAPGKGLEWVARIRSKSSNYARYYADSVKDRFTISRDDSQSMLYLQMNNLKTEDTAMYYCVRDHDYYGSSYWFAYWGQGTLVTVSA VL: DVVMTQTPLSLPVSLGDQASISCRSSQSLVHNNGNTYLHWYLQKPGQSPKLLIYKVSNRFSGVPDRFSGSGSGTDFTLKISRVEAEDLGVYFCSQSTHVPWTFGGGTKLEIK | – | 60.8
9 | 2-P2-A (antibody, V domains shown) VH: EVQLQQSGAELVRPGSSVKMSCKTSGYTFTSYGINWVKQRPGQGLEWIGYIYIGNGYTEYNEKFKGKATLTSDTSSSTAYMQLSSLTSEDSAIYFCARGGVDYWGQGTTLTVSS VL: DVLMTQTPLSLPVSLGDQASISCRSSQSIVHSNGNTYLEWYLQKPGQSPKLLIYKVSNRFSGVPDRFSGSGSGTDFTLKISRVEAEDLGVYYCFQGSHVPYTFGGGTKLEIK | 17.9 | –
10 | 8-H3-A (antibody, V domains shown) VH: EVQLVESGGGLVQPKGSLKLSCAASGFTFNTYAMHWVRQAPGKGLEWVARIRSKSSNYATYYADSVKDRFTISRDDSQSMLYLQMNNLKTEDTAMYYCVRDHDYYGSSYWFTYWGQGTLVTVSA VL: DVVMTQTPLSLPVSLGDQASISCRSSQSLVHDNGNTYLHWFLQKPGQSPKLLIYKVSNRFSGVPDRFSGSGSGTDFTLKISRVETEDLGVYFCSQSTHVPWTFGGGTKLEIK | – | 19.4
11 | 8-H5-A (antibody, V domains shown) VH: QVTLKESGPGILQSSQTLSLTCSLSGFSLSTSGMGVSWVRQPSGKGLEWLAHIYWDDDKRYTPSLKSRLTISTDSSRKQVFLKITSVDTADTATYYCARRDLHDYDGWFAYWGQGTLVTVSA VL: DIVMTQSQKFMSTAVGDRVSVTCKASQNVGTNVAWYQQKPGQSPKALIYSASFRYSGVPDRFSGSGSGTDFTLTISNVQSEDLAEYFCQQYNSYPLTFGSGTKLEIK | – | 12.8
12 | 1-L10-A (antibody, V domains shown) VH: EVKLEESGGGLVQPGGSMKLSCVASGFTFNNYWMNWVRQSPEKGLEWVAQMRLKSDNYATHYAESVKGRFTISRDDSKSSVYLQMNNLRAEDTGIYYCIEGYWTYWGQGTLVTVSA VL: QIVLTQSPAIMSASLGERVTMTCTASSSVSSSYLHWYQQKPGSSPKLWIYSTSNLASGVPARFSGNGSGTSYSLTISSMEAEDAATYYCLQYHRSPPYTFGGGTKLEIK | 7.5 | 8.65
13 | 4-M3-A (antibody, V domains shown) VH: EVQLQQSGPELVKPGDSVKISCKASGYSFTGYFMNWVMQSHGKSLEWIGRINPNNGETFYNQKFKGKATLTVDKSSDTAHMELRSLTSEDSAVYYCARGGTGTGWGQGTTLTVSS VL: DILMTQSPSSMSVSLGDTVSITCHASQGISSNIGWLQQKPGKSFKGLIYYGTNLEDGVPSRFSGSGSGADYSLTISSLESEDLADYYCIQYAQFPYTFGGGTKLEIK | – | 7.36
14 | 4-N22-A (antibody, V domains shown) VH: QVQLQQPGTELVKPGASVKLSCKASGYTFTNYWMYWVKQRPGQGLDWIGNINPSNGGTNYNEKFKSKATLTVDKSSSTAYMQLSSLTSEDSAVYYCARETGNYWGQGTTLTVSS VL: DILMTQSPSSMSVSLGDTVSISCHASQGISSNIGWLQQKPGKSFKGLIYHGTNLEDGVPSRFSGSGSGADYSLTISSLESEDFADYYCVQYAQFPYTFGGGTKLEIK | – | 4.93
15 | 3-E2-A (antibody, V domains shown) VH: EVQLQQSGPELVKPGASVKISCKASGYTFTDYYMNWVKQSHGKSLEWIGDINPNNGGTSYTQKFKGKATLTVDKSSSKAYMELRSLTSEDSAVYYCARRGDGHYGGFTYWGQGTLVTVSA VL: not shown | – | 18.4
16 | 2-O12-A (antibody, V domains shown) VH: EVQLQQSGPELVKPGASVKISCKASGYTFTDYYMNWVKQSHGKSLEWIGDINSNNGGTTYDQKFKGKATLTVDRSSSTAYMELRSLTSEDSAVYYCARRGDGHFGGFTYWGQGTLVTVSA VL: not shown | – | 14.9
